# Test results: the nanobody polyreactivity screen of Harvey et al. (2022)
# Assay: yeast display, Sf9 membrane polyspecificity reagent, FACS + sequencing; frameworks hold sequencing errors
# In short: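 A synthetic nanobody library was expressed on Saccharomyces cerevisiae BJ5465 by galactose induction for 36–48 hours. The library was stained for 1 hour at 4 °C with 10% biotinylated, detergent-solubilized Sf9 membrane reagent and enriched with streptavidin microbeads before FACS. Low and high (top ~1%) gates were set on anti-HA fluorescence for expression and streptavidin fluorescence for reagent binding, and each polyreactivity label reflects the gate of origin.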
row,Sequence,polyreactivity (PSR sort gate)
1,QVQLVESGGGLVQAGGSLRLSCAASGFIFRRYVMGWYRQAPGKERELVAAISTSGGSTYYADSVKGRFTISRDNAKNSVYLQMNSLKPADTAVYYCNKAVGVTGFDYWGQGTEVTVSS,high polyreactivity
2,QVQLVESGGALDQAGGSLRLTCAASGFIFYFYAKGWYRQAPGKERELVAAIDSAGSTNYADSVKGRFTISRDNAKNTVYLQMNSLKPEDTAVYYCAREPDSYVSWRSRYNYWGQGTQVTVSS,low polyreactivity
3,QVQLVESGGGLVQAGGSLRLSCAASGRTFLEKAMGWYRPAPGKEREFVAANTYSSGSTFYADSVKGRFTISRDNAKNTVYLQMNSLKPEDTAVYYCAARFWYRHARWYDYWGQGTQVTVSS,high polyreactivity
4,QVQLVESGGGLVQAGGTLRLICAASGSTFGPYDMGWYRQAPGKERELVADITSGGSTYYADSVKGRFTISRDNAKNTVYLQMISLKPEDTAVYYCAADRVWPYYQYDYWGQGTQVTVSS,low polyreactivity
5,QVQLVESGGGLVQAGGSLRLSCAASGITSYYYTMGWYRQAPGKERELVAAITSGGSTYYADSVKGRFTISRDNAKNTVYLQMNSLKPEDNAVYYCTADNPRYRGSKYGPYDDYNYWGQGTQVTVSS,low polyreactivity
6,QVQLVESGGGLVQAGGSLRLSCAASGSTFETYAMGLYRKAPGKDRELVAAITWAGDTSYADSVKGRFTISRDNAKHTVYLQMNSLKPEDTAVYYCAKDNGRAYFGRSPYDYWGQGTQVTVTS,low polyreactivity
7,QVQLVESGGGLVQAGGSLRLSCAASRSIFGIYTMGWSRQEPGKERELVAAIKSGGSTNYADSVKGRFTITRDNAKNTVYLQMNSKKPEDTAVYYCNAYIHPPGPRVYSREYDYWGQGTQVTVSS,low polyreactivity
8,QVQLVESGGGLVQAGGSLRLSCAASGRIFWTNAMGWYRQAPGKERELVAGITWRGGSTYYADSVKGRFTISRDNAKNTVYLQMNSLKPEDTAVYYCATRQGWYSGFDYWGQGTQVTVSS,high polyreactivity
9,QVQLVESGGGLVQAGGSLRLSCAASGRTCYSNAMGWYRQAPGKERELVAAITRGASTKYADSVKGRFTISRDNAKNTVYLQMNSLKPEDTAVYYCATARYPRYIYDYWGQGTQVTVSS,low polyreactivity
10,QVQLVESGGGLVQAGGSLRLSCAASGITFYEYAMGWYRQAPGKEREFVAAIDDGDSSTYYADSVKGRFTISRDNGKNTVYLQMNTLKPEDSAVFDCNADPYYDYSLNWGDYWGQGTQVTVSS,low polyreactivity
11,QVQLVESGGGLVQAGGSLRLSCAASGRIVSKYALGWYRQAPGKERELVAAISNGGSTNYADSVKGRFTISRDNAKNTVYLQMNSRKPEDTAVYYCAAGWPARYEEGYNYWGQGTQVTVST,low polyreactivity
12,QVQLVESGGGLVQAGGSLRLSCADSGSTFTSNAMRWYRQAPGKEREFVAAINWGGSITYYADSVKGRFTISRDNAKNTVYLQMNSLKPEDTAVYYCAAETYYDTYYPEGDYWGQGTQVTVSS,low polyreactivity
13,QVQLVESGGGLVQAGGSLRLSCAASGRIFGSNAMGWYRQAPAKERELVAAITFRTASTYYADSVKGRFTISRDNAKNTVYLQMNSLKPEDTSVYSCNADKFSAPPLYEYEYWGQGTQVTVSS,low polyreactivity
14,QFQLVESGGGLVQAGGSLRLSSAASGSIFRSYAMGWYRQAHGKERELVAAISSRSGSTYYADSVKGRFTISRDNAKNTVYLQMNSLKPEETAVYYCAAQHRHSYGYWGQGTQVTVSS,high polyreactivity
15,QVQLVESGGGLVQAGGSLRLSCAASGRTFGRYAMGWYRQAHGKERELVAAISWSGGSTYYADSVKGRFTISRDNAKNTVYLQMNNLKPEDTAVYYCAAVTTDGVYAFDYWGQGTQVTVSS,low polyreactivity
16,QVQLVESGGGLVQAGGSLRLSCAASGSTFNWYAMGWYRQAPGKERELVAAISSGGNTNYADSVKGRFTISRDNAKNTVYLQMNSLKPEDTAVYYCAARYPYKHLAWSTSKRFGYWGQGTQVTVSS,low polyreactivity
17,QVQLVESGGGLVQAGGSLRLSCAASGSTIGDNAMGWYRQAPGKERELVASITGGGGSTYYADSVKGRFTISRDNAKNTVYLQMNSLKPEDTAVYYCAAVYQSYTYYLPKYWSFYQNDYWGQGTQVTVSS,low polyreactivity
18,QVQLVESGGGLVQAGGTLRLSCAASGSIQYRYAMGWYRQAHGKERELVAAISARGGNTYYADSVKGRFTISRDNAKNTVYVQMNSLKPEDTAVYYCAATYRGYRLHVAYDYWGQGTQVTVSS,high polyreactivity
19,QVQLVESGGGLVQAGGSLRLSCAASGSTFFGYAMGWYRQAPGKERELVASITWSSGRTNYADSVKGRFTISRDNAKNTVFLQRYSVKPEETAVYYCAQVLDHQLYIDHWVRIYGYWGQGTQVTVSS,low polyreactivity
20,QVQLVESGGGLVQAGGSLRLSCAASGRTFLWYTMGWYRQAPGKERELVAAISGSGGSTYYADSVKGRFTISRDNAKNTVYLQMNSLKPEDTAVYYCNAVRGYRYDYWGQGTQVTVSS,high polyreactivity
21,QVQLEDSGGGLVQAGGSLRLSCAASGSTISYYTMGWYRQAPGKERELVAAISSGGSTYADSVKGRFTISRDNAKNTVYLQMNSLKPDDTAVYYCAVDGFDYGPSQALDYWGPGTQVTVSS,low polyreactivity
22,QVQLVESGGGLVQAGGSLRLSCAASGIIFKYYAMGWYRQAPGKERELVAVISRSGGGTYYADSVKGRFTISRDNAKNTVYLQMNSLKPEDTAVYYCAAERSSGFDYWGQGTQVTVSS,high polyreactivity

row,Sequence,polyreactivity (PSR sort gate)
1,QVQLVESVGGLVQAGGSLRLSCAASGFTFVYNAMGWYRQAPGKEREMVAAISSRGGSTFYADSVKGRFTISRDNAKNTVYLQMNSLKPEDTAVYYCNAVPGWTYDYWGQGTQVTVSS,high polyreactivity
2,QVQLVESGGGLVQAGGSLRLSCAASGSIFSYYAMGWYRQAPGKERELVAAISVSGGRTYYADSVKGRFTISRDNAKNTVYLQMNSLKPEDTAVYYCATRIRSYYYWGQGTQVTVSS,high polyreactivity
3,QVQLVESGGGLVQAGGSLRLSCAASGFIFRFYAMGWYRQAPGKEREVVAVISRSGGSTYYADSVKGRFTISRDHAKNTVYLQMNSLKPEDTAVYYCAATFYWDSVRRGDYDYWGQGTQVTGSS,high polyreactivity
4,QVQLVESGGGLVQAGGSLRLSCAASGFISSHYAMGWYRQAPGKERELVAAISTNGGSTYYADSVKGRFTISRDNAKNTVYLQMNSLKPEDTAVYYCAAEFAVSFYWSWLGQDYNYWGQGTQVTVSS,high polyreactivity
5,QDQLVESGGGLVQAGGSLRLSCAASGRTFRSYVMGWYRQAPGKERELVAAITTSGGSTYYADSVKGRFTISRDNAKNTVYLQMNSLKPEDTAVYYCAAEYYTYTGHYDSWYGDDYWGQGTQVTVSS,high polyreactivity
6,QVQLVESGGGLVQAGGSLRLSCAASGRTFHYYAMGWYRQAPGKERELVAAISSTGGSTYYADSVKGRFTISRDNAKHPVYVQMNSLKPADTAVYSCAARQFGYYHVRNEYWGQGTQVTVSS,high polyreactivity
7,QVQLVESGGGLVQAGGRLRLSCAASGSTLYPNAMGWSRQAPGKDRELVAAISSGSSTYADSVKGRFTISRDNAKNTVYLQMNSLKPADTAVYYCNADAPIHYDYWGQGTQVTVSS,low polyreactivity
8,QVQLEESGGGLVQAGGSLRLSCSASGLILHGYAMGWYRQAPGKERELVAAITRSGGRTYYADSVKGRFTISRDNAKYTVYLQMNSLKPEDTAVYYCAALGWSGRYRYDYWGQGTQVTVSS,high polyreactivity
9,QVQLVESGGGLVQAGGSLRLSCAASGFIFWIYAMGWYRQAPGKEREFVAVITYRGDTSYYADSVKGRFTISRDNAKNTVYLQMNSLKPEDTAVYYCAAYTVQKYGYWGQGTQVTVSS,low polyreactivity
10,QVQLVESGGGLVQAGGSLRLSCAASGRTFSIYAMGWYRQAPGKERELVASITGRGTRTYYADSVKGRFTISRDNAKNTVYLQMNSLKPEDTAVYYCNARGKVQSSYDDDYWGQGTQVTVSS,high polyreactivity
11,QVQLVESGGGFVQAGGSLRLSCAASGSIFKRYAMGWYRQAPGKEWELVARISRRGGTYYADSVKGRFTISRDNAKNTVYLQINSLKPDDTAVYYCNANVIFADNNDRDYWGQGTQVTVSS,low polyreactivity
12,QVQLVESGGGLVQAGGSLRLSCAASGRTFYIYALGWYRQAPGKERELVAAISWGSGSTYYADSVKGRFTISRDNAKNTVYLQMNSLKPEDTAVYYCAAEYAYPSEWTYDYWGQGTQVTVSS,low polyreactivity
13,QVQLVESGGGLVQAGGSLRLSCAASGSTSQPYAMGWYRQAPGKERELVASITNGGITYYADSVKGRFTISRDNAKNTVYLQMNSLKPEDTAVYYCNADNVFEGYDRRSARASYRYYYWGQGTQVTVSS,low polyreactivity
14,QVQLVESGGGLVQAGGSLRLSCAASGRIFAWDAMGRYRQAPGKERELVAAITWGGGRTYYADSVKGRFTISRDNAKNTVYLQMNSLKPEDTAVYYCAAYSYKEEAYRGVAQERDYWGQGTQVTVSS,low polyreactivity
15,QVQLVESGGGLVQAGGSLRLSCAASGSTFYPNAKGWYRQAPGKDREFVAASSTSAGRTYYADSVKGRFTISRDNAKKTVYLQINSLKPEDTAVYYCNARYWVYYVYEYDSWGQGTQVTVSS,low polyreactivity
16,QVHLVESGGGLVQAGGSLRLSCAAYGSIFHGNAMGWYRQAPGKERELVAAISWSGDSTYYADSVKGRFTISRDNAKNTVYLHMNSLKPEDTAVYSCNAEWTRDFYEYDYWGQGTQVTVSS,low polyreactivity
17,QVQLEESGVGLVQAGGSLRFSCAASGRIFYSYAMGCDRQAPGKERELVATISSAGSTYYADSVKGRFTISRDNAKNTVYLQMNSLKPEDTAVYYCAARRPRRYGYWGLGTQVTVSS,high polyreactivity
18,QVQLVESGGGLVQAGGSLRLSCAASGRTFYTYGMGWYRQAPGKERELVAAITETGDSTYYADSVKGRFTISRDNAKNTVYLQMNSLKPEDTAVYYCAADYRAPLDYWGQGTQVTVSS,low polyreactivity
19,QVQLVESGGVLVQAGGSLRLSCAASGSTFSRYAMGWYRQAPGKETELVAAINWSGGRTYYADSVKGRFTISRDNAKNTVYLQMNSLIAADTAVYFCAADGRRYSGEYYYWGQGTQVTVSS,high polyreactivity
20,QVQLVESGGGLVQAGGSLRLSCAASGSIFDSYAMGWSRQAPGKERELVAAISWSGGSTYYADSVKGRFTISRDNAKNTVSLQMNSLKPEDTAVYYCNTDWADYYYYTDYDYWGQGTQVTVSS,high polyreactivity
21,QVQLVESGGGLVQAGGSLRLSCADSGSIFDVNVMGWYRQAPAKERELVASINISGASTYYADSVKGRLTISRDNAKNTVSLQMNSLKPEDTAVYYCAGTYGVPSFRYGYWGQGTQVTVSS,low polyreactivity
